Results on one molecule are retold here after paper PMC6650547 (mBio, 2019).

This assay deals with T1, His-SUDV-NP(34-367) (Sudan virus (SUDV), strain Boniface, UniProt Q9QP77 34-367).
T1 sequence: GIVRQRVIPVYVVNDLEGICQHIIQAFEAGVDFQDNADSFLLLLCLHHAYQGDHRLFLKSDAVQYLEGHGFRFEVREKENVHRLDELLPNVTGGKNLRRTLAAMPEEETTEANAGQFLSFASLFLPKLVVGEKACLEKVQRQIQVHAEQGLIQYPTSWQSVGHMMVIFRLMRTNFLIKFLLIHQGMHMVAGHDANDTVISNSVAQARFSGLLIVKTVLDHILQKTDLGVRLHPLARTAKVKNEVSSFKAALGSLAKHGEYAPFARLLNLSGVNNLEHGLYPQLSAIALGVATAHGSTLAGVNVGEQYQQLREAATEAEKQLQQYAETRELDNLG
As to the kind of experiment: BLI; […] ([…]), 60 s association, 60 s dissociation; […]; Octet Red. Conditions: both partners purified.

Usually Kd stands for a measure of binding affinity in units of concentration. Low values mean higher affinity, high ones lower affinity.

B1: SUDV VP35 wild-type chaperone domain peptide (residues 1 to 34) (peptide)
peptide: MQQDRTYRHHGPEVSGWFSEQLMTGKIPLTEVFV
As for B1, the Kd was approximately 3.86 nM.
